Results reported in patent EP0971740B1.

What was measured:
[1] = target: FnBP purified from S. aureus strain Newman (Staphylococcus aureus); assay: competition ELISA on FnBP coated at 5 µg/ml; competitor anti-D121-34 F(ab')2 at 100 µg/ml
[2] = target: FnBP purified from S. aureus strain Newman (Staphylococcus aureus); assay: competition ELISA on FnBP coated at 5 µg/ml; competitor anti-D320-33 F(ab')2 at 100 µg/ml

Work on “Human plasma Fn (from UniProt P02751 32-2477) (ligand)” yielded a concentration of soluble Fn at which F(ab')2 recognition of FnBP was virtually eliminated [1] of 50 µg/mL and a concentration of soluble Fn at which F(ab')2 recognition of FnBP was virtually eliminated [2] of 50 µg/mL.
